Laboratory results taken from US20050203022A1.
Values belong to the substance of their own block, whether it stands above or below them.

Biological target: TGFβ1 (UniProt P01137)
Test: cell-based or functional assay

Sequence of UniProt P01137 (P01137 279-390 limits assumed): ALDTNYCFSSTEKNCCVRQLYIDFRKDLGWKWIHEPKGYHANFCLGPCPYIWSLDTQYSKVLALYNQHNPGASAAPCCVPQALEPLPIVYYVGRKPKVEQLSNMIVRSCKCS

[3H] thymidine incorporation (CPM) of CCL64 mink lung cells with 0.1 ng/ml TGFβ1, control IgG at 0.02 µg/ml: 43000 CPM
[3H] thymidine incorporation (CPM) of CCL64 mink lung cells with 0.1 ng/ml TGFβ1, control IgG at 0.04 µg/ml: 54400 CPM
[3H] thymidine incorporation (CPM) of CCL64 mink lung cells with 0.1 ng/ml TGFβ1, control IgG at 0.08 µg/ml: 61900 CPM
[3H] thymidine incorporation (CPM) of CCL64 mink lung cells with 0.1 ng/ml TGFβ1, control IgG at 0.16 µg/ml: 52800 CPM
[3H] thymidine incorporation (CPM) of CCL64 mink lung cells with 0.1 ng/ml TGFβ1, control IgG at 0.31 µg/ml: 52400 CPM
[3H] thymidine incorporation (CPM) of CCL64 mink lung cells with 0.1 ng/ml TGFβ1, control IgG at 0.62 µg/ml: 56700 CPM
[3H] thymidine incorporation (CPM) of CCL64 mink lung cells with 0.1 ng/ml TGFβ1, control IgG at 1.25 µg/ml: 51400 CPM
[3H] thymidine incorporation (CPM) of CCL64 mink lung cells with 0.1 ng/ml TGFβ1, control IgG at 2.5 µg/ml: 54400 CPM
[3H] thymidine incorporation (CPM) of CCL64 mink lung cells with 0.1 ng/ml TGFβ1, control IgG at 5 µg/ml: 55100 CPM
[3H] thymidine incorporation (CPM) of CCL64 mink lung cells with 0.1 ng/ml TGFβ1, control IgG at 10 µg/ml: 53600 CPM
Substance: control IgG (antibody)

[3H] thymidine incorporation (CPM) of CCL64 mink lung cells with 0.1 ng/ml TGFβ1, TGFβRII:Fc at 0.02 µg/ml: 57700 CPM
[3H] thymidine incorporation (CPM) of CCL64 mink lung cells with 0.1 ng/ml TGFβ1, TGFβRII:Fc at 0.04 µg/ml: 49900 CPM
[3H] thymidine incorporation (CPM) of CCL64 mink lung cells with 0.1 ng/ml TGFβ1, TGFβRII:Fc at 0.08 µg/ml: 63800 CPM
[3H] thymidine incorporation (CPM) of CCL64 mink lung cells with 0.1 ng/ml TGFβ1, TGFβRII:Fc at 0.16 µg/ml: 75100 CPM
[3H] thymidine incorporation (CPM) of CCL64 mink lung cells with 0.1 ng/ml TGFβ1, TGFβRII:Fc at 0.31 µg/ml: 119000 CPM
[3H] thymidine incorporation (CPM) of CCL64 mink lung cells with 0.1 ng/ml TGFβ1, TGFβRII:Fc at 0.62 µg/ml: 150000 CPM
[3H] thymidine incorporation (CPM) of CCL64 mink lung cells with 0.1 ng/ml TGFβ1, TGFβRII:Fc at 1.25 µg/ml: 168000 CPM
[3H] thymidine incorporation (CPM) of CCL64 mink lung cells with 0.1 ng/ml TGFβ1, TGFβRII:Fc at 2.5 µg/ml: 179000 CPM
[3H] thymidine incorporation (CPM) of CCL64 mink lung cells with 0.1 ng/ml TGFβ1, TGFβRII:Fc at 5 µg/ml: 179000 CPM
[3H] thymidine incorporation (CPM) of CCL64 mink lung cells with 0.1 ng/ml TGFβ1, TGFβRII:Fc at 10 µg/ml: 182000 CPM
amount required to inhibit the anti-proliferative effect of 0.1 ng/ml TGFβ1 by 50%: 0.5 µg/mL
Substance: recombinant rabbit TGFβRII:Fc fusion protein
